PMC10175819

Experiments:
[1] = biological target: RHT1-GRAS (truncated DELLA protein carrying only the C-terminal GRAS domain), yeast hybrid fusion (wheat); test: yeast three-hybrid; quantitative alpha-gal Y3H assay; BD and AD fusions with a third protein expressed or not expressed; n = 12
[2] = biological target: GROWTH-REGULATING FACTOR 4 (GRF4), yeast hybrid fusion (wheat); test: as above

| percent reduction of the PLATZ1-DELLA interaction with GRF4 as the third protein [1] | fold stronger interaction than between PLATZ and DELLA [2] | Substance |
| --- | --- | --- |
| 74% | – | GROWTH-REGULATING FACTOR 4 (GRF4), yeast hybrid fusion (natural protein) |
| – | > 20 fold | RHT1-GRAS (truncated DELLA protein carrying only the C-terminal GRAS domain), yeast hybrid fusion (domain or fragment) |
